Measured values reported in article PMC10509265.

Biological target: IP3R-type 2 (UniProt Q9Z329)
Experiment: anti-IP3R2 co-IP from heart lysate
Settings: reference: wild type heart after TAC; sites S14

Bcl-xL (from UniProt Q64373) S14A knock-in heart after TAC
binding against the reference: stronger
